Patent US20250304936A1 (KYUNGPOOK NATIONAL UNIVERSITY INDUSTRY ACADEMIC COOPERATION …, published 2025)

Biological target: the molecule itself
Test: size exclusion chromatography (Superdex 200 Increase 10/300 GL); self-association of the chain: 92.1 kDa measured against 40.9 kDa calculated for the monomer
Method: (A) Molecular sieve chromatography profiling of purified GH117A α-NABH was performed using a Superdex 200 Increase 10/300 GL column equilibrated with 40 mM Tris-HCl (pH 8.0) containing 150 mM NaCl. At this time, a protein solution containing 500 μg GH117A α-NABH was injected into the column, and the column was eluted at 4° C. at a flow rate of 0.3 mL/min, and the protein elution profile was monitored by measuring absorbance at 280 nm. […]
Molecular sieve chromatography was performed using a Superdex 200 Increase 10/300 GL column (GE Healthcare) equilibrated with 40 mM tris-HCl (pH 8.0) and 150 mM NaCl. Purified GH117A α-NABH (0.5 mg/0.5 mL) was injected into the column, and molecular sieve chromatography was performed under conditions of 4° C. and a flow rate of 0.3 mL/min, and protein elution was measured at a wavelength of 280 nm. For the column, a standard curve of retention volume versus protein molecular weight was obtained using size markers such as ferritin (440 kDa), aldolase (158 kDa), ovalbumin (44 kDa), and ribonuclease A (13.7 kDa), and molecular weight of the purified GH117A α-NABH was measured using the curve.

B1: recombinant His-tagged GH117A α-neoagarobiose hydrolase (α-NABH) of Cellvibrio sp. KY-GH-1 (enzyme)
chain: MGDLPEKKLSKASLRAIERGYDQKNADWVFEFDVKPLGGDFAYQEGVIRRDPSAVIFVDGLYHVWYTKGEGETVGFGSANPEDKVFPWDKTEVWHATSSDGWDWKEQGAAIVAGAPGSYDDRAVFTPEVLAHEGRYYLVYQTVKAPYLNRTKECIALASADSPYGPWVKSPAPILTPADNGVWDGDEDNRFNCKIRGDFDSHKVHDPCLMFYQNKFYLYYKGEIMGERMNFGGREIKHGVAIADKIEGPYVKSEFNPITNSGHEVVVWHVNGGIASLLTTDGPEKNTCQWSPDGINFDIMAHIKGAPEALGLYRDPAADIQDPMAGLAWGLCHKYDSSWNWNYICRFKTRRQILDPGTFQNVAS
notes: The entry under measurements means that the chain associates with itself; also called GH117A α-NABH; GH117 A α-NABH; not shown: C-terminal 6x His tag from vector pET-30a (cloned NdeI/XhoI)
binding result: binds
